Test: soluble on expression in E. coli; label from the status in PepcDB or PDB records

Soluble on expression in E. coli, soluble:
MSGKRALITGIRGQDGAYLAKLLLEKGYEVYGADRRSGEFASWRLKELGIENDVKIIHMDLLEFSNIIRTIEKVQPDEVYNLAAQSFVGVSFEQPILTAEVDAIGVLRILEALRTVKPDTKFYQASTSEMFGKVQEIPQTEKTPFYPRSPYAVAKLFGHWITVNYREAYNMFACSGILFNHESPLRGIEFVTRKITYSLARIKYGLQDKLVLGNLNAKRDWGYAPEYVEAMWLMMQQPEPDDYVIATGETHTVREFVEKAAKIAGFDIEWVGEGINEKGIDRNTGKVIVEVSEEFFRPAEVDILVGNPEKAMKKLGWKPRTTFDELVEIMMEADLKRVRDREVSV
MSLKILVIGPSWVGDMMMSQSLYRTLKARYPQAIIDVMAPAWCRPLLSRMPEVNEAIPMPLGHGALEIGERRRLGHSLREKRYDRAWVLPNSFKSALIPFFANIPHRTGWRGEMRYGLLNDARVLDKDAWPLMVERYVALAYDKGVMRAAKDLPQPLLWPQLQVSEGEKSLMCSDFSLSSERPLIGFCPGAEFGPAKRWPHYHYAELAKQLINEGYQVVLFGSAKDHEAGNEILAALNSEQQAWCRNLAGETQLEQAVILIAACKAIVTNDSGLMHVAAALDRPLVALYGPSSPDFTPPLSHKARVIRLITGYHKVRKGDTAQGYHQSLIDITPQRVLEELHSLLSEEGVEGGSHHHHHH
MAGAITLACTIRFEANAEHVYLSSGTKQTVYHYPFPMSTIHITLNGERKEVPAGSTVSELLVIADADRQPVAVVVNEHIVRPDQRDSYILQERDQVEILVFAGGGLEHHHHHH
SEAAETEAEAAALEVLAEVAGILEPVGLQEEAELPAKILVEFVVDSQKKDKLLCSQLQVADFLQNILAQEDTAKGLDPLASEDTSRQKAIAAKEQWKELKATYREHVEAIKIGLTKALTQMEEAQRKRTQLREAFEQLQAKKQMAMEKRRAVQNQWQLQQEKHLQHLAEVSAEVRERKTGTQQELDGVFQKLGNLKQQAEQERDKLQRYQTFLQLLYTLQGKLLFPEAEAEAENLPDDKPQQPTRPQEQSTGDTMGRDPGVSFKAVGLQPAGDVNLP
MQTLTVVGLGRLGRSLGRLAADSGAYRLLDLMGRRAQPLAEGRDFVGAGRPVSEMRQLAPADLYLLAVPDAAIASCARGLAAAGVAPAGSVVFHASGVGDASLLRPLAEQGVLTASLHPAFSFADPKRAVEGFAGTLCALEGDEQACLRLEAFARALGGRPFRLAPGGKAAYHAGLSVASNFLVALTAMAGQLTARAGVPPELARQLLGGLMRQTLDNALELGPYDALTGPILRGDIGTVERHLEVLADTGLISAYRTLGRQVVELAGERLQEPARQQLLALLYLEHHHHHH
STDNTTSSDLIKNVETARSTIDGLIESLGWIELNYRCERQCNWDEVCYTPSWGPSPMGMTEPGSHNEGFGTHFDESRQRLVINSKLQCININDLMVNRNH

Soluble on expression in E. coli, not soluble:
MTKIFIRDDNGGTEMSQDPFQEREAEKYANPIPSREFILEHLTKREKPASRDELAVELHIEGEEQLEGLRRRLRAMERDGQLVFTRRQCYALPERLDLVKGTVIGHRDGYGFLRVEGRKDDLYLSSEQMKTCIHGDQVLAQPLGADRKGRREARIVRVLVPKTSQIVGRYFTEAGVGFVVPDDSRLSFDILIPPDQIMGARMGFVVVVELTQRPTRRTKAVGKIVEVLGDNMGTGMAVDIALRTHEIPYIWPQAVEQQVAGLKEEVPEEAKAGRVDLRDLPLVTIDGEDARDFDDAVYCEKKRGGGWRLWVAIADVSYYVRPPTPLDREARNRGTSVYFPSQVIPMLPEVLSNGLCSLNPQVDRLCMVCEMTVSSKGRLTGYKFYEAVMSSHARLTYTKVWHILQGDQDLREQYAPLVKHLEELHNLYKVLDKAREERGGISFESEEAKFIFNAERRIERIEQTQRNDAHKLIEECMILANISAARFVEKAKEPALFRIHDKPSTEAITSFRSVLAELGLELPGGNKPEPRDYAELLESVADRPDAEMLQTMLLRSMKQAIYDPENRGHFGLALQSYAHFTSPIRRYPDLMLHRAIKYLLAKEQGHQGNTTETGGYHYSMEEMLQLGQHCSMAERRADEATRDVSDWLKCDFMLDQVGNVFKGVISSVTGFGFFVRLDDLFIDGLVHVSSLDNDYYRFDQVGQRLMGESSGQTYRLGDRVEVRVEAVNMDERKIDFSLISSERAPRNVGKTAREKAKKGDAGKKGGKRRQVGKKVNFEPDSAFRGEKKTKPKAAKKDARKAKKPSAKTQKIAAATKAKRAAKKKVAE
GKSLKVSSPRPGLLERLSATIQRNLPGHSMLDRQLTTDGKKNQESRFSFSMIKDRIVHFAVSTKLGSVRDSASKHGGEVTFKFAQTKGAFLDQIMKHQDTSGGVCESISAHWISAHAKGESVFNQLYVGGQKGQFHIDSLVSIKQLQMDGLDPYAEQSQITESWLRENGIQPRSPLEVSGETGSKGTKDLLNAILDTGDKGSGYKKISFEGQMAGHTVAAYVDDQKGVTFFDPNFGEFSFPDKTSFSNWFSQDFWSKSMYNKEIGLGQNFYVSNFEP
MAHHHHHHMMSNTTSSGKGPTTFMWNSVPPSGDMPLHGCCHSLANYKDEQLILFGGGALHIIFNDVYCFDLKTSTWSYKETTNSEIVAPRISHSAVVHEDKMYVYGGQDLYMPTRFADVLVLDLITFTWSLIQQQATPAPDGPGDRRLHTAHIYRNCMYVLMGEPCNISNSFWFLDLTTLEWHPVHSSGWFGKPILPLLGHSAQVEGDYLYVFGGYHADSARRNGSPVYNNSLFSYHFPSNTWREVVPSSGPRPSPRYASAMAVIRGRVFIYGGDVDGEVYFDDFWCIDTNIPSSAASQSSSSSSYTTSLVAAPPAASSRWIDITLSCGRGRPSARSGHASAVAQGCLFVVGGELPGDRDVVYYSNRTYRYPLGYLTRLSLVELSSLWLAKCNPANIWMLDTQIPRHVRQLLVRNLNAQDRESTDDMMPCTRVVC
DKIGTAVLQGVMQGRRAKDVAKEIEQITDATASRATFIARDQTSKMNAAFNEIRQVGLGIESYTWQTSGDERVREDHAAHDGTVFRWSDPPATGHPGQDYNCRCVAIPNVTLEGP
RDPEGLLGDKEDLGITCALIPTDVKGVEIGNRHFPLNVPFQNGPTRGKDIFVPIDFIIGGEKMAGQGWRMLVECLSVGRGITLPSNSTGGIKSAAMATGAYSRIRRQFKQPIGHMEGVEEPLARLGGNAYVMDAASNLTVAGIDLGEKPSVISAIVKYHCTHRGQQSIIDAMDIVGGKGICLGPSNFLARGYQGSPIAVTVEGANILTRSMIIFGQGAIRCHPYVLEEMNAAYSEASDAVEKFDKALAGHVSFTMSNLVRSIWFGLSDGLGSSAPTKDATKRYYQQLNR
MAQHGALETLKDLAEKEVDDAARLLGEMRRGCQQAEEQLKMLIDYQNEYRSNLNTDMGNGIASNRWINYQQFIQTLEKAIEQHRLQLTQWTQKVDLALKSWREKKQRLQAWQTLQDRQTAAALLAENRMDQKKMDEFAQRAAMRKPE
MTDNARKEYLNQFFGSKRYLYQDNERVAHIHVVNGTYYFHGHIVPGWQGVKKTFDTAEELETYIKQQDLEYEEQKQLTLFLEHHHHHH
KEEELVSDEEIGVKISLTGLKGGHSGVDIHLGRANANKLMFRFLKEAVGFYGARLAWVEGGSLRNAIPREAFAVITIQEEEAEAVWELVSDYQDLFRKEFSGIEENIKFEASRIECPRMIIPEEIQDCLINAVEACVNGPQSMLQDFPGTVESSSNLALITAKEGSISVRFLVRSSSESHKMWVASAIESVFSLAGARVEFDASYNGWQPNIQSHILEVMSKVFEEYYGQKPEVQVMHAGLECGIIQGVMPDMDMISVGPELQSPHSPDERIHIESVARTWEVLVKVLERV
MSETFTSVSQEEAGFRERARLSFDLDADICVIGAGLAGLSIALEAARLGASVAVLEGRHIGWNASGNQLGTVMPGFALPLTDLIERIGFEDARELWTLSKEGAEFVRANATEENMPGIAPSDGVLEVSNVDTGDRLISRLQMLHEDFDTEVEGWQVDRVRDVLKTDRYFHGVYYPKAFQVDGRKYVHGLAALARRAGARIFEDTPVVSIDHSGIRKRIVTPSARLRATHIVLAGNIHLGAPLRRLSETLLPVWRYAGITAPLGERVHEIIAFKGSVMDSDGVDHFRIVDGDRLMWESPETTWAARPQRFAGGVRRRIRSIFPQFGNVEIADMFGGATGQTVHGMPQIGQLRKGLWVASGFGRQGMNTSAMAGQMIARSILWGDERWRLFSPFELVWAGGATGRVAGQLVGIWGRASSAAAGTLARYRERARVKDREREARLAEANRAAGTGPRRPPPGVRPRPAPPPKPATEALEPASHDDSVSQLEHHHHHH
MINLTSIASSLARVALSDSTKPTIDRALNVVSHIAGKVALQVNSSLLEQKGRLNERQQKGLAVILDALRGKEPVTNVETHEGGGRFNLARAAFDVASVVWERDKSMHNVMSFLGVSDSQGKMLFSLGKKLADAMAKPEPGYGKHNSEANYAFFSSNLKLNKLMSDIADQLINEIRQSNTDRVRRPTPGPSWRPESAQQQARPQTPPRTRPQANSTPPPPKAKPNAGAKRPSTQRPHNTPAADASSKVGDSGPAKPPVKPLYEHLGLSDMTADLSAVKTAYKKAALKNHPDKNAGNVAEATERFKVISNAFKILSDPELRKKYDNGLINEKGDEVQV
RVTDAEHPGVQLEFTNNKGELVSYEAISPWQKNAAGVNFHTFYGFGAVDLDEAMKRARMTNNVLPAQIITPWANNATEVSVPDASLAGGSSNIAITDDITVESVQVKLTLEHSRLPDLAIELVSPSGTRSVLQTPRNGLVGQSLDPNITGYENQLMLSNQFYGENAKGEWTLRAIDTNGDEVFSFIAYFNSSAIYDVPMANNAKPGVIKNWSMRIFGH
MSLDEAWKSLEKLRGVKLLPGNKVLLKRGEVFNGELEITGQGIPEDRIYIDAYGDDERKPCIVGYDTSLYAARICNSDYITMQNLEIVNTGRQPLPYRSGLKIECMDYGVSQNIVVNNVTVRDVNGSLVKEKGGGCGIYIVNGGEKKISTFNRLTIENCHILRCTRNAMIWAAYSDRQNWHPSKHTVIRGNLIEEVPGDGIVPIGCDSTLIEYNVMRDCPDMLPDTEAAAGIWPWSCDNTLVQFNEVSGHKAPWDAQGFDSDWNCRGTVIQYNYSHDNYGGLVLVCNDGTADASFNVGNLGTIVRYNVSIGDGVRPEPTRAGMFSPAVHLAGPVKDSRITRNIIHVNRKPAADIDRTMITLDSWGGYPDSTFISGNIFYAPESSRFQLTESTHNFFEGNYYLGRFEKLPEDGKACQSAEIYQKEVLAKDENGYQGLALLMDTVEVTGVKGVFVNKEAIENFFSRLEKEGHHHHHH
IKNDGLKLDAYYLPAGKATNKTVIIIHGFRRNKTGMKAYTDMFANLGYNTLTVDNRGHGKSQGHYVGFGWLDKGDVEAWIRYLISKNKNVEIVPFGISMGGATVAMMSGDSLPSNVKALIEDSGYTSVEAEITYEAKAMYNLPQKPFVSTVSLISKLFAGYSYTEASSIKQVEKNTRPMLFMHGGADSYVPTKMVYQLYNADKDPEKQLWIAPNSGHVQGFGDHPSAYTAQIKKFLNLYFK
MSLALSRIDGQDELFVGGLWALRRSDSLTDRRITHVLSLVPFDISSLKNFKDEPWIDYGKDFRHQLIDIDDVEDSDLLIELPKAVRFIEEGLGANYMEHADDDGGVSLEKDVDVVEKKRKKKGGVFVHCAVGKSRSVSAVIAYLLRRYPSRFDPNITPTAISDPSQSTGSETSAEKRSRKETAQEAVHAALTYVRRTRPMAEPNEGFMEQLALWWEMEEGHHHHHH
MEYHSHTVVTERKVTLLEQGQASDLTDYVANEVRVALVYNGISHTVMLASPENLEEFAIGFTLSERIVSHVNEIKGVDLEFTPEGVLIQVEITQRCFMALKQLRRNMAGRTGCGLCGVAQLEEAVKPVIRVDSDARFNIDHLQFALEQVKDNQHHFKLTGATHAAMGLDLEGQIIAAYEDIGRHIALDKLIGGCSMRHAKRPVAVLLTSRASFEMVQKAASANIQILFAMSAVTSLALELAEKSNITLIGFCRNGRATLYTHGYRLLGLNRASLAKAIAAALEHHHHHH

From the DeepSol protein solubility set
